Residue numbers refer to the chain shown, from its start.
T1: interleukin 8 (CXCL8) (100-175: Shenandoah Biotechnology, Inc.) (UniProt P10145 28-99)
T1 construct: the antibodies tested are mouse anti-human IL-8 antibodies; also called IL-8
T1 sequence (looked up): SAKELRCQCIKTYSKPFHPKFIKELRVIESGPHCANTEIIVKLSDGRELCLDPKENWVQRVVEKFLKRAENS

T2: animal free recombinant human IL-4 (AF-200-04: Peprotech, Inc.) (human, UniProt P05112 25-153)
T2 construct: Bought reagent
T2 sequence (looked up): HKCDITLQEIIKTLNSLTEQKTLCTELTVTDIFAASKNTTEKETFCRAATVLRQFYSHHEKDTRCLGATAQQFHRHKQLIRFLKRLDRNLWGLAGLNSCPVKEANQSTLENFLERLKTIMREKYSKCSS

B1: mouse anti-human IL-6 antibody (clone 58-1), original (unmodified) (Fab, V domains shown, not shown: a dimerising Fc or GST)
VH: EVQLQQSGPELVKPGASVKMSCKASGYTFTSYVMHWVKQKPGQGLEWIGYINPYNDGTKYNEKFKGKATLTSDKSSSTAYMELSSLTSEDSAVYYCAREGYGNLERDCWGQGTSVTVSS
VL: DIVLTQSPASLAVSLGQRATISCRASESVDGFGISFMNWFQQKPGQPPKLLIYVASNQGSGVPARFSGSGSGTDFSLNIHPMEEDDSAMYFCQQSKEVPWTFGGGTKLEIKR
notes: The heavy entry is VH-CH1 with part of the hinge; the light entry holds only the variable domain; Purified on Ni-NTA, so a His tag is implied but not described; also called Anti-IL-6 antibody (clone 58-1)
B2: R5 variant of anti-IL-6 antibody (clone 58-1) (Fab, V domains shown, not shown: a dimerising Fc or GST)
VH: B1 VH
VL: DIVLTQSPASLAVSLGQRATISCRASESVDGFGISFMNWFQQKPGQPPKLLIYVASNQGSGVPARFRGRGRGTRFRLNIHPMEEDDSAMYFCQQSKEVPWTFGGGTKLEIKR
notes: Light chain positions 63, 65, 67, 70, 72 (Chothia) changed to Arg; Fab
B3: R4 variant of anti-IL-6 antibody (clone 58-1) (Fab, V domains shown, not shown: a dimerising Fc or GST)
VH: B1 VH
VL: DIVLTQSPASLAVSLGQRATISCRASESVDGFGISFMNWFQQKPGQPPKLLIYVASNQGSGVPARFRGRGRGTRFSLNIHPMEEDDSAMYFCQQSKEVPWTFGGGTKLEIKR
notes: Light chain positions 63, 65, 67, 70 (Chothia) changed to Arg; Fab
B4: R3 variant of anti-IL-6 antibody (clone 58-1) (Fab, V domains shown, not shown: a dimerising Fc or GST)
VH: B1 VH
VL: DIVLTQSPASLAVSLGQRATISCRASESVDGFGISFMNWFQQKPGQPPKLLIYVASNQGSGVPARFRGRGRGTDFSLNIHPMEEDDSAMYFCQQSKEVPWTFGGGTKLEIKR
notes: Light chain positions 63, 65, 67 (Chothia) changed to Arg; Fab; a His tag is implied by Ni-NTA purification but not described
B5: mouse anti-human IL-6 antibody (clone 44-15), original (unmodified) (Fab, V domains shown, not shown: a dimerising Fc or GST)
VH: DVQLQESGPGLVKPSQTVSLTCTVTGISITTGNYRWSWIRQFPGNKLEWIGYIYYSGAITYNPSLTSRTTITRDTSMNQFFLEMISLTAEDTATYYCARDRYDYAVDFWGQGTSVTVSS
VL: DIQMTQSPASLSASVGETVTITCRSSENIYSFLTWFQQRQGKSPHLLVYYANTLAEGVPSRFSGSGSGTQFSLQINSLQPEDFGTYYCQHHYGTPWTFGGGTRLEIKR
notes: Fab; the light entry holds only the variable domain; a His tag is implied by Ni-NTA purification but not described; also called Anti-IL-6 antibody (clone 44-15)
B6: R4 variant of anti-IL-6 antibody (clone 44-15) (Fab, V domains shown, not shown: a dimerising Fc or GST)
VH: B5 VH
VL: B5 VL with S63R, S65R, S67R, Q70R
notes: as for B3
B7: R3 variant of anti-IL-6 antibody (clone 44-15) (Fab, V domains shown, not shown: a dimerising Fc or GST)
VH: B5 VH
VL: B5 VL with S63R, S65R, S67R
notes: Light chain positions 63, 65, 67 (Chothia) changed to Arg; Fab
B8: R5 variant of anti-IL-6 antibody (clone 44-15) (Fab, V domains shown, not shown: a dimerising Fc or GST)
VH: B5 VH
VL: B5 VL with S63R, S65R, S67R, Q70R, S72R
notes: as for B2
B9: mouse anti-human IL-8 antibody (clone 166-1), original (unmodified) (Fab, V domains shown, not shown: a dimerising Fc or GST)
VH: EVKLVESGGGLVKPGGSLKLSCAASGFTFNNYAMSWVRQTPEKRLEWVASISSGGNTYYPDSVKGRFTLSRDNARNILYLQMSRLRSEDTAMYYCARDKLRLPNWYFDVWGAGTTVTVSS
VL: DIVLTQSPPSLAVSLGQRATISCKASQSVDYDGDSYMNWYQQKPGQPPKVLIYGASNLESGIPARFSGSGSGTDFTLNIYPVEEEDAATYYCQQSNEDPPTFGGGTKLEIKR
notes: Fab; the light entry holds only the variable domain; a His tag is implied by Ni-NTA purification but not described; also called Anti-IL-8 antibody (clone 166-1)
B10: R5 variant of anti-IL-8 antibody (clone 166-1) (Fab, V domains shown, not shown: a dimerising Fc or GST)
VH: B9 VH
VL: B9 VL with S67R, S69R, S71R, D74R, T76R
notes: as for B2
B11: R3 variant of anti-IL-8 antibody (clone 166-1) (Fab, V domains shown, not shown: a dimerising Fc or GST)
VH: B9 VH
VL: B9 VL with S67R, S69R, S71R
notes: as for B7
B12: R4 variant of anti-IL-8 antibody (clone 166-1) (Fab, V domains shown, not shown: a dimerising Fc or GST)
VH: B9 VH
VL: B9 VL with S67R, S69R, S71R, D74R
notes: as for B3
B13: mouse anti-human IL-8 antibody (clone 146-1), original (unmodified) (Fab, V domains shown, not shown: a dimerising Fc or GST)
VH: EVQLVESGGGLVKPGGSLKLSCAASGFTFSSYAMSWVRQTPEKRLEWVATISNGGSYTYYPDSLKGRFTISRDNAKNTLYLQMSSLRSEDTAIYYCARGITGGVYFDYWGQGTTLTVSS
VL: B5 VL with S25A, F32Y, T34A, F36Y, R39K, Y50D, N52E, Q74K, T85S, R103K
notes: Fab; the light entry holds only the variable domain; a His tag is implied by Ni-NTA purification but not described; also called Anti-IL-8 antibody (clone 146-1)
B14: R5 variant of anti-IL-8 antibody (clone 146-1) (Fab, V domains shown, not shown: a dimerising Fc or GST)
VH: B13 VH
VL: DIQMTQSPASLSASVGETVTITCRASENIYSYLAWYQQKQGKSPHLLVYDAETLAEGVPSRFRGRGRGTRFRLKINSLQPEDFGSYYCQHHYGTPWTFGGGTKLEIKR
notes: as for B2
B15: R4 variant of anti-IL-8 antibody (clone 146-1) (Fab, V domains shown, not shown: a dimerising Fc or GST)
VH: B13 VH
VL: B14 VL with R72S
notes: as for B3
B16: R3 variant of anti-IL-8 antibody (clone 146-1) (Fab, V domains shown, not shown: a dimerising Fc or GST)
VH: B13 VH
VL: B14 VL with R70Q, R72S
notes: as for B7
B17: human anti-IL-4 antibody (PDB: 5FHX), original (unmodified) (antibody, human IgG1, kappa, V domains shown)
VH: AVQLQQSGPELVKPGASVKISCKASGYSFTSYWIHWIKQRPGQGLEWIGMIDPSDGETRLNQRFQGRATLTVDESTSTAYMQLRSPTSEDSAVYYCTRLKEYGNYDSFYFDVWGAGTLVTVSS
VL: DIQMTQSPASLSVSVGDTITLTCHASQNIDVWLSWFQQKPGNIPKLLIYKASNLHTGVPSRFSGSGSGTGFTLTISSLQPEDIATYYCQQAHSYPFTFGGGTKLEIKR
notes: IgG with full heavy and light chains; also called original anti-IL-4 antibody
B18: R4 variant of anti-IL-4 antibody (antibody, human IgG1, kappa, V domains shown)
VH: B17 VH
VL: B17 VL with S63R, S65R, S67R, G70R
notes: IgG; light chain positions 63, 65, 67, 70 (Chothia) changed to Arg
B19: R3 variant of anti-IL-4 antibody (antibody, human IgG1, kappa, V domains shown)
VH: B17 VH
VL: B17 VL with S63R, S65R, S67R
notes: IgG; light chain positions 63, 65, 67 (Chothia) changed to Arg

target: T3, human IL6 protein, His and GST tags (active) (GTX00094-pro: GeneTex, Inc.) (human, UniProt P05231 30-212, limits assumed); assay: SPR (Biacore 8K), antigen immobilized on CM4 chip, antibody as analyte
T3 construct: Bought reagent; not shown: His and GST tags
Procedure: (§1) (4.1) For anti-IL-6 antibody, anti-IL-8 antibody, and anti-IL-12 antibody Affinity of the original antibodies and variants was measured using Biacore (registered trademark) 8K (Cytiva). As antigens, human IL6 protein, His and GST tags (active) (GTX00094-pro: GeneTex, Inc.), interleukin 8 (CXCL8) (100-175: Shenandoah Biotechnology, Inc.), and human IL 12 protein (Recombinant His, C-terminus) (aa23-328) (LS-G134297-50: LSBio, Inc.) were used. The antigen was immobilized to a sensor chip for Biacore (registered trademark) Series S Sensor Chip CM4 (GE Healthcare). Each antibody solution obtained in the above (3.2) was diluted to prepare an antibody solution for measurement. The concentration of each antibody in the antibody solution for measurement was as follows. In the solutions of the anti-IL-6 antibody (58-1) and its R3, R4 and R5 variants, the concentration was 100 nM, 50 nM, 25 nM, 12.5 nM and 6.25 nM. In the solution of the anti-IL-6 antibody (44-15), the concentration was 100 nM, 50 nM, 25 nM, 12.5 nM and 6.25 nM, and in the solutions of its R3, R4 and R5 variants, the concentration was 50 nM, 25 nM, 12.5 nM, 6.25 nM and 3.13 nM. In the solutions of the anti-IL-8 antibody (166-1) and its R3, R4 and R5 variants, the concentration was 100 nM, 50 nM, 25 nM, 12.5 nM and 6.25 nM. In the anti-IL-8 antibody (146-1) solution, the concentration was 100 nM, 50 nM, 25 nM, 12.5 nM and 6.25 nM, in the solution of its R3 variant, the concentration was 50 nM, 25 nM, 12.5 nM, 6.25 nM and 3.13 nM, and in the solutions of its R4 and R5 variants, the concentration was 25 nM, 12.5 nM, 6.25 nM, 3.13 nM and 1.56 nM. In the anti-IL-12 antibody solution, the concentration was 50 nM, 25 nM, 12.5 nM, 6.25 nM and 3.13 nM, in the solution of its R3 variant, the concentration was 25 nM, 12.5 nM, 6.25 nM, 3.13 nM and 1.56 nM, and in the solution of its R4 variant, the concentration was 12.5 nM, 6.25 nM, 3.13 nM, 1.56 nM and 0.78 nM.
(§2) The antibody solutions for measurement at each concentration were delivered to Biacore (registered trademark) 8K (Cytiva) (association time of 120 seconds and dissociation time of 1200 seconds). Measurement data was analyzed using Biacore (registered trademark) Evaluation software, and the data on the affinity of each antibody for an antigen was obtained.

Kd [nM]	Binder
0.198	B1
0.0279	B2
0.0472	B3
0.0812	B4
20.4	B5
8.38	B6
7.16	B7
4.4	B8

target: T1, interleukin 8 (CXCL8) (100-175: …); assay: as above
Procedure: as §1, §2

Kd [nM]	Binder
1.64	B9
0.389	B10
1.17	B11
0.595	B12
15.3	B13
2.4	B14
3.14	B15
5.8	B16

target: T2, animal free recombinant human IL-4 …; assay: ELISA; affinity ratio with the original antibody as 1.0
Procedure: (§3) Affinity of the original anti-IL-4 antibody and variants was measured by ELISA method. As an antigen, an animal free recombinant human IL-4 (AF-200-04: Peprotech, Inc.) was used. The IL-4 was diluted with 1% BSA/TBS to prepare an antigen solution (5 μg/mL). Each of the original anti-IL-4 antibody, R3 variant and R4 variant was diluted with 1% BSA/TBS to prepare an antibody solution (1000 ng/mL, 250 ng/mL, 62.5 ng/mL, 15.63 ng/mL, 3.91 ng/mL, 0.98 ng/mL, and 0.244 ng/mL). As a detection antibody, an HRP-labeled anti-human IgG antibody (Bethyl Laboratories) was used. The detection antibody was diluted with 1% BSA/TBS to prepare a detection antibody solution (100 ng/mL).
(§4) The antigen solution was dispensed at 50 μL per well into a 96 well plate for ELISA (Thermo Fisher Scientific), and the plate was incubated at 4° C. overnight. The plate was washed 3 times with 200 μL of a washing solution per well (0.05% Tween 20-containing TBS). A blocking solution (1% BSA-containing TBS) was dispensed at 250 μL per well, and the plate was incubated at 4° C. overnight. The blocking solution was removed, the […] solution was dispensed at 50 μL of antibody solution per well into the plate, and the plate was incubated at room temperature for 15 minutes. After washing the plate 3 times with a washing solution, the detection antibody solution was dispensed at 50 μL per well, and the plate was incubated at room temperature for 1 hour. After washing the plate 3 times with a washing solution, a substrate solution (Seracare) was dispensed at 100 μL per well into the plate, and the absorbance at 450 nm was measured with a plate reader SpectraMax 190 Microplate Reader (Molecular Devices, LLC.).

EC50 ratio	Binder
1	B17
1.7	B18
1.7	B19

target: T2, animal free recombinant human IL-4 …; assay: ELISA, IL-4 coated on plate, HRP anti-human IgG detection
Procedure: as §3, §4

EC50 [µg/mL]	Binder
0.304	B17
0.176	B18
0.18	B19

target: T3, human IL6 protein, His and GST tags …; assay: SPR (Biacore 8K); affinity ratio with the original antibody as 1.0
Procedure: as §1, §2

KD ratio	Binder
1	B1
7.1	B2
4.2	B3
2.4	B4
1	B5
2.4	B6
2.9	B7
4.6	B8

target: T1, interleukin 8 (CXCL8) (100-175: …); assay: as above
Procedure: as §1, §2

KD ratio	Binder
1	B9
4.2	B10
1.4	B11
2.8	B12
1	B13
6.4	B14
4.9	B15
2.6	B16

Source: US20230091175A1 (SYSMEX, published 2023)
